Measured values taken from patent publication US20030220254A1, “Composition and method for preparation of an oral dual controlled release formulation of a protein and inhibitor” (TEXAS TECH UNIVERSITY SYSTEM, priority 2002, published 2003).
Read-outs that look alike come from different tables or passages of the source.

Key:
α-chymotrypsin [1] = target: T1, α-chymotrypsin (Bos taurus, UniProt P00766); experiment: α-chymotrypsin mediated degradation of insulin with inhibitors (HPLC); type: biochemical
Description: (§1) Stability studies in the presence of chicken and duck ovomucoid were conducted. […] The degradation profiles were generated in the presence of 0.1 μM α-chymotrypsin and 0.5 μM trypsin over a period of 60 minutes that served as controls. These concentrations were selected based on a reported study (Schilling & Mitra 1991).
(§2) Samples were taken at 0, 5, 15, 30 and 60 minutes and immediately diluted with cold 1% TFA/TRIS to reduce the pH to 2.5. The samples were analyzed at 4° C. by a reverse-phase HPLC method using a Varian Chromatography Workstation. […] Similar studies were performed with aprotinin.
The protocol used was the same as above with minor modifications. […] The degradation profiles were generated in the presence of α-chymotrypsin and DkOVM. The enzyme to inhibitor ratio used was 1:1 with respect to α-chymotrypsin.

in vitro = details: male, Sprague Dawley, rat, pH 7.4
Source text: (§3) Male Sprague Dawley rats weighing between 200-300 g were used for the permeability experiments. The intestine was excised and the jejunum was isolated by a reported method (Asada et al. 1995). Briefly, the duodenal and ileal segments were removed from top and bottom (13 cm on either side) and the residual intestine was designated as jejunum. The respective segments were mounted in a Navicyte Side-By-Side diffusion apparatus with accessories such as water circulator, flowmeter and humidifier.
(§4) The segments were mounted without stripping on a preheated acrylic half-cell and the cell assembly was then placed in a heated block after joining the other half-cell. The exposed surface area was 1.78 cm^2 and the reservoir volume was 6 mL. The donor and receiver compartments were immediately filled with pre-warmed oxygenated Krebs bicarbonate buffer adjusted to pH 7.4 with NaOH or HCl. The composition of buffer used is shown in Table 11, which illustrates the composition of stock solutions used for preparation of Krebs Bicarbonate solution. The stock solutions can be made in 100 mL or 1 L volume and stored in a refrigerator for one month. For preparation of working buffer, 50 mL of each stock solution above is added to a 1 L volumetric flask containing 750 mL of water. The pH was adjusted to 7.4 when necessary. […]
(§5) For the marker studies, the concentration of ^14C mannitol in donor compartment was 3.5×10^−5 μM and that of H testosterone was 4×10^−2 μM. The integrity of the tissues was determined by calculating the permeability coefficient (Papp) of mannitol. […] Aliquots of 10 μL were taken from the mucosal side at the beginning and end of the experiment and analyzed by a HPLC method discussed later. […] The radioactive samples were analyzed by using a liquid scintillation counter.
(§6) The results of experiments performed at least in triplicate are presented as mean±SE. Statistical differences between permeability in the presence of DkOVM and CkOVM and the means were determined by one-way analysis of variance (ANOVA). […]

rat jejunum = experiment: in vitro
Source text: as §3, §4, §5, §6

trypsin [2] = target: T2, trypsin (Bos taurus, UniProt P00760); experiment: trypsin mediated degradation of insulin with inhibitors (HPLC); type: biochemical; details: trypsin 0.5 μM
T2 construct: gene PRSS1
T2 sequence (P00760 24-246): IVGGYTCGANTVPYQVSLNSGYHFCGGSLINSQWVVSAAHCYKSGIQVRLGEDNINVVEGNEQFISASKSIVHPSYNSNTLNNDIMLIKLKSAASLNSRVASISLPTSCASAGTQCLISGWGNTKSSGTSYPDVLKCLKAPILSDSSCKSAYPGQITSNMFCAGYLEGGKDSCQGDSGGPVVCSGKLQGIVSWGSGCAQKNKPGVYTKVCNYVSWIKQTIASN
Description: as §1
as §2, with “Workstation. Plots of insulin remaining versus time were generated.” for “Workstation.”

trypsin [3] = target: T2, trypsin; experiment: Stability of sCT in the presence of trypsin and protease inhibitors; type: biochemical
Description: (§7) sCT solutions (50 μM) were incubated at 37° C. in 50 mM Tris buffer containing 0.1 mM calcium chloride (pH 8.0). Degradation profiles generated in the presence of 0.5 μM trypsin and 0.1 μM α-chymotrypsin served as controls. The concentrations were selected on the basis of a reported study (Schilling R. J. and Mitra A. K. 1991). DkOVM and TkOVM were evaluated at different enzyme-to-inhibitor ratios to evaluate their inhibition of sCT degradation. CkOVM and aprotinin were used at 1:1 enzyme-to-inhibitor ratio in order to compare the efficacy of various protease inhibitors used. sCT and enzyme solutions were incubated for 15 min at 37° C. before starting the experiments. Samples were taken after 0, 5, 15, 30 and 60 min and immediately diluted with cold 1% trifluoroacetic acid (TFA) to reduce the pH to 2.5. The samples were analysed at 4° C. by HPLC given below. Plots of sCT remaining against time were generated. […] (amount of sCT (%) remaining after 60 min) were used to compare the efficacy of the ovomucoids. Similar studies were performed with aprotinin. The study was also conducted by incubating 50 μM sCT solutions with 0.5 μM trypsin and 0.1 μM α-chymotrypsin added together and the efficacy of TkOVM was evaluated at various ratios.
(§8) sCT was analyzed by means of our validated HPLC method (Shah R B, et al., 2003). Briefly, a computer controlled Varian Chromatography workstation consisting of the following components was used: Two Dynamax SD-200 pumps, an AI-200A autosampler fitted with a 100 μl injection loop, a Dynamax UV-1 detector and Star 5.3 chromatography software. Room temperature was maintained for the column and chromatographic separations were carried out on a C-18 Vydac 218MS54 column (5 μm, 4.6×250 mm) with a pore size of 300 Å. 50 μl of samples were injected into the column which were analyzed by the reversed phase HPLC method. The mobile phase consisted of 0.05% v/v TFA-Water (A) and 0.05% v/v TFA-Acetonitrile (B). The gradient conditions were 20-35% B for 10 min, 35-37% B from 10th to 20th min and 37-20% B from 20th to 25th min at a flow rate of 1 ml/min. […] Concentrations of sCT were quantified from integrated peak areas and calculated by interpolation from an according standard curve.

α-chymotrypsin [4] = target: T1, α-chymotrypsin; experiment: Stability of sCT in the presence of α-chymotrypsin and protease inhibitors; type: biochemical
Description: as §7, §8

rat intestinal segments = experiment: Insulin transport across rat intestinal segments (side-by-side diffusion apparatus)
Source text: as §3
The segments were mounted without stripping on a preheated acrylic half-cell and the cell assembly was then placed in a heated block after joining the other half-cell. The exposed surface area was 1.78 cm^2 and the reservoir volume was 6 mL. The donor and receiver compartments were immediately filled with pre-warmed oxygenated Krebs bicarbonate buffer adjusted to pH 7.4 with NaOH or HCl. The composition of buffer used is shown in Table 11, which illustrates the composition of stock solutions used for preparation of Krebs Bicarbonate solution. The stock solutions can be made in 100 mL or 1 L volume and stored in a refrigerator for one month. For preparation of working buffer, 50 mL of each stock solution above is added to a 1 L volumetric flask containing 750 mL of water. The pH was adjusted to 7.4 when necessary.
The mucosal buffer consisted of 40 mM mannitol and the serosal buffer consisted of 40 mM glucose. […] Mannitol equalizes the osmotic load between the mucosal and […] buffers and glucose helps to maintain tissue viability. The buffer was circulated by a gas lift (95%O2/5%CO2). The flow rate of gas lift was adjusted to 10±2 mL/min using a flow meter. The tissues were equilibrated for 10 min before the drug solution was added.
For the marker studies, the concentration of ^14C mannitol in donor compartment was 3.5×10^−5 μM and that of H testosterone was 4×10^−2 μM. The integrity of the tissues was determined by calculating the permeability coefficient (Papp) of mannitol. For α-chymotrypsin studies, the enzyme was added immediately after the addition of drug and inhibitor solution to achieve a final concentration of 0.5 μM. Samples (1 mL) were taken from the serosal side at various times up to 180 min and replaced with fresh transport medium. Aliquots of 10 μL were taken from the mucosal side at the beginning and end of the experiment and analyzed by a HPLC method discussed later. […] The radioactive samples were analyzed by using a liquid scintillation counter.
as §6

α-chymotrypsin [5] = target: T1, α-chymotrypsin; experiment: Insulin stability in Krebs bicarbonate buffer with α-chymotrypsin and DkOVM over 3 hours; type: biochemical; details: absence of DkOVM
Description: The degradation profiles were generated in the presence of 0.5 μM α-chymotrypsin over a period of 3 hours that served as controls. […] Samples were taken up to 180 min and immediately diluted with cold 1% TFA/TRIS to reduce the pH to 2.5. The samples were analyzed by the RP-HPLC method reported earlier.

rat GIT segments [6] = details: cited from earlier work; for Papp × 10^7 cm/sec of insulin: Rat, Everted gut sac
rat GIT segments [7] = details: cited from earlier work; for Papp × 10^7 cm/sec of insulin: Rat, Ussing technique
apical epithelium = details: Stoll et al. 2000; cited from earlier work
[8] = in vivo; cited from earlier work
[9] = cited from earlier work
[10] = chymotrypsin 0.1 μM, enzyme:inhibitor 1:1

Molecule: O=C(O)CN(CCN(CC(=O)O)CC(=O)O)CC(=O)O [EDTA]
- % I60 min (insulin remaining at 60 minutes) (α-chymotrypsin [1]; chymotrypsin + 0.5 mM EDTA, no inhibitor): 0.32 ± 0.33%

Molecule: C[C@H](CCC(=O)NCC(=O)[O-])[C@H]1CC[C@H]2[C@@H]3[C@H](O)C[C@@H]4C[C@H](O)CC[C@]4(C)[C@H]3C[C@H](O)[C@]12C.[Na+] [NaGC, sodium glycocholate]
- % I60 min (insulin remaining at 60 minutes) (α-chymotrypsin [1]; chymotrypsin + 30 mM NaGC, no inhibitor): 4.66 ± 0.8%

Molecule: OC[C@@H](O)[C@@H](O)[C@H](O)[C@H](O)CO [^14C Mannitol, D-[1-^14C] mannitol]
- Papp at 180 min (in vitro): 3.46 ± 0.251 ×10⁻⁶ cm/s
- ^14C Mannitol Permeability × 10^6 cm/sec (rat jejunum): 3.465 ± 0.251 × 10^6 cm/sec
- ^14C Mannitol Ratio (rat jejunum; male, Sprague Dawley, rat, 180 min, pH 7.4): 1.0

Molecule: Aprotinin
- % I60 min (insulin remaining at 60 minutes) (α-chymotrypsin [1]; [10]): 69.65 ± 6.04%
- % I60 min (insulin remaining at 60 minutes) (trypsin [2]; enzyme:inhibitor 1:1): 97.99 ± 0.08%
- Amount (%) of sCT remaining at 60 min (I60) (trypsin [3]; trypsin 0.5 μM, enzyme:inhibitor 1:1): 83.36 ± 8.92%
- Ratio (half-life versus trypsin alone) (trypsin [3]; trypsin:inhibitor 1:1): 199.34
- Amount (%) of sCT remaining at 60 min (I60) (α-chymotrypsin [4]; [10]): 35.87 ± 1.06%
- Ratio (half-life versus α-chymotrypsin alone) (α-chymotrypsin [4]; α-chymotrypsin:inhibitor 1:1): 1.82

Molecule: insulin
- % I60 min (insulin remaining at 60 minutes) (α-chymotrypsin [1]; insulin 18 μM alone, no enzyme): 100%
- insulin degraded in 60 minutes (α-chymotrypsin [1]; α-chymotrypsin, control without inhibitor): more than 90%
- % I60 min (insulin remaining at 60 minutes) (trypsin [2]; no inhibitor): 68.79 ± 1.85%
- cumulative amount of insulin permeated at the end of three hours (rat intestinal segments; jejunum): 0.04±0.023 IU
- Permeability of insulin (P × 10^7 cm/sec) (rat intestinal segments; rat jejunum, insulin 100 μM + α-chymotrypsin 0.5 μM + DkOVM 0.0 μM): 0.0 × 10^7 cm/sec
- Permeability of insulin (P × 10^7 cm/sec) (rat intestinal segments; rat jejunum, insulin 100 μM alone): 0.922 ± 0.168 × 10^7 cm/sec
- Papp of insulin (rat intestinal segments; rat jejunum, insulin alone): 0.922±0.168 ×10^−7 cm/sec
- insulin (%) remaining at the end of 3 hours (α-chymotrypsin [5]): negligible
- Papp × 10^7 cm/sec of insulin (rat GIT segments [6]; Duodenum): 0.78 ± 0.54 × 10^7 cm/sec
- Papp × 10^7 cm/sec of insulin (rat GIT segments [6]; Ileum): 1.54 ± 0.29 × 10^7 cm/sec
- Papp × 10^7 cm/sec of insulin (rat GIT segments [6]; Jejunum): 1.385 ± 0.265 × 10^7 cm/sec
- reported Papp of insulin from rat jejunum (rat GIT segments [6]; Schilling & Mitra 1990): 5±2 ×10^−7 cm/sec
- reported Papp of insulin from rat jejunum (rat GIT segments [7]; Asada et al. 1995): 12.27±1.73 ×10^−7 cm/sec
- Papp × 10^7 cm/sec of insulin (rat GIT segments [7]; Colon): 4.05 ± 1.09 × 10^7 cm/sec
- Papp × 10^7 cm/sec of insulin (rat GIT segments [7]; Duodenum): 4.85 ± 0.99 × 10^7 cm/sec
- Papp × 10^7 cm/sec of insulin (rat GIT segments [7]; Jejunum): 12.27 ± 1.73 × 10^7 cm/sec
- apical epithelial permeability of insulin (apical epithelium): 0.032 ×10⁻⁶ cm/s
- insulin reaching the liver via the portal vein that undergoes degradation [8]: About 50%
- peak time ([9]; pulmonary route): 5 to 60 min
- peak time ([9]; subcutaneous route): 6 to 150 min
